Test results from patent US20210292393A1 (published 2021).

B1: antibody 273 (antibody, V domains shown)
VH: QVQLVQSGAEVKKPGASVKVSCKVSGYTLTELSMHWVRQAPGKGLEWMGGFDPEDGETIYAQKFQGRVTMTEDTSTDTAYMELSSLRSEDTAVYYCATAPGYYDSSAPQPINWFDPWGQGTLVTVSS
VL: QSALTQPASVSGSPGQSITISCTGTSSDVGSYNLVSWYQQHPGKAPKLMIYEVSKRPSGVSNRFSGSKSGNTASLTISGLQAEDEADYYCCSYAGSSTLVFGGGTKLTVL
B2: antibody 276 (antibody, V domains shown)
VH: QVQLQESGPGLVKPSQTLSLTCTVSGDSISSGGYYWSWIRQHPGKGLEWIGYIYYSGSAYYNPSLKSRVTISLDTSKNQFSLKLSSVTAADTAVYYCARDSVAGFSIFDYWGQGTLVTVSS
VL: SSELTQDPAVSVALGQTVRITCQGDSLRSYYASWYQQKPGQAPVRVIYGKNNRPSGIPDRFSGSSSGNTASLTITGAQAEDEADYYCNSWDSSGNHVVFGGGTKLTVL
B3: antibody 281 (antibody, V domains shown)
VH: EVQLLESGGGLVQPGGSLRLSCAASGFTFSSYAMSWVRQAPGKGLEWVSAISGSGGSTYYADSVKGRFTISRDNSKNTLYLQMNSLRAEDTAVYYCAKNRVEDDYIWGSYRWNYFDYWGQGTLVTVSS
VL: QSALTQPASVSGSPGQSITISCTGTSSDVGSYNLVSWYQQHPGKAPKLMIYEVSKRPSGVSNRFSGSKSGNTASLTISGLQAEDEADYYCCSYAGSSTHVVFGGGTKLTVL
B4: antibody 284 (antibody, V domains shown)
VH: QVTLRESGPALVKPTQTLTLTCTFSGFSLSTSGMCVSWIRQPPGKALEWLALIDWDDDKYYSTSLKTRLTISKDTSKNQVVLTMTNMDPVDTATYYCARTSGYSSSWPSFDYWGQGTLVTVSS
VL: not shown
B5: antibody 288 (antibody, V domains shown)
VH: EVQLVESGGGLVQPGGSLRLSCAASGFTFSSYDMHWVRQATGKGLEWVSAIGTAGDTYYPGSVKGRFTISRENAKNSLYLQMNSLRAGDTAVYYCARGANRDYDILTGYYSYYYYGMDVWGQGTTVTVSS
VL: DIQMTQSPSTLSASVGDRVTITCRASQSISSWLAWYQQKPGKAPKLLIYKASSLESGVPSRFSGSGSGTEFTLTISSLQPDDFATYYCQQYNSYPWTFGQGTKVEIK
B6: antibody 294 (antibody, V domains shown)
VH: EVQLVESGGGLVQPGGSLRLSCAASGFTVSSNYMNWVRQAPGKGLEWVSVIYSGGSTYYADSVKGRFTISRDNSKNTLYLQMNSLRAEDTAVYYCARDLGPSGMDVWGQGTTVTVSS
VL: DIQMTQSPSSVSASVGDRVTITCRASQGISSWLAWYQQKPGKAPKLLIYAASSLQSGVPSRFSGSGSGTDFTLTISSLQPEDFATYYCQQANSFPLFGGGTKVEIK
B7: antibody 295 (antibody, V domains shown)
VH: QVQLQESGPGLVKPSQTLSLTCTVSGGSISSSDYYWSWIRQPPGKGLEWIGYIYYSGSTYYNPSLKSRVTISVDTSKNQFSLKLSSVTAADTAVYYCARVVGYCSSTSCYVDYWGQGTLVTVSS
VL: EIVLTQSPATLSLSPGERVTLSCRASQSVSSYLAWYQQKPGQAPRLLIYDASNRATGIPARFSGSGSGTDFTLTISSLEPEDFAVYYCQQRSNWPPGLTFGGGTKVEIK
B8: antibody 300 (antibody, V domains shown)
VH: QVQLVESGGGVVQPGRSLTLSCAASGFTFSSYAMHWVRQAPGKGLEWVALISYDGNNKYYADSVKGRFTFSRDNSKNTLYLQMNSLRAEDTAVYYCARTNSGSYRTAFDYWGQGTLVTVSS
VL: DIQMTQSPSTLSASVGDRVTITCRASQSISIWLAWYQQKPGKAPKLLIYKASSLESGVPSRFSGSGSGTEFTLTISSLQPDDFATYYCQQYNSLWTFGQGTKVEIK
B9: antibody 301 (antibody, V domains shown)
VH: QVQLVQSGAEVKKPGASVKVSCKVSGYTLTELSMHWVRQAPGKGLEWMGGFDPEDGETIYAQKFQGRVTMTEDTSTDTAYMELSSLRSEDTAVYYCATAFCGGDCYPPDALDIWGQGTMVTVSS
VL: DIQMTQSPSSVSASVGDRVTITCRASQGISSWLAWYQQKPGKAPKLLIYAASSLQSGVPSRFSGSGSGTDFTLTISSLQPEDFATYYCQQANSFPLTFGGGTKVEIK
B10: antibody 303 (antibody, V domains shown)
VH: QVQLVESGGGVVQPGRSLRLSCAASGFNLSSYAMHWVRQASGKGLEWVSLISYDGSIKYYADSVKGRFTVSGDNSKNMLFLQMNSLRADDSALYYCVRGGVSGPNAFDIWGQGTTVTVSS
VL: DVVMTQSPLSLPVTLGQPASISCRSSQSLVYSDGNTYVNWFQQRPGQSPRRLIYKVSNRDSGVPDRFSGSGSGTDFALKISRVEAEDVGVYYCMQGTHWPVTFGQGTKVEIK
B11: antibody 258 (antibody, V domains shown)
VH: QVQLQESGPGLVKPSETLSLTCTVSGGSISSYYWSWIRQPAGKGLEWIGRIYTSGSTNYNPSLKSRVTMSVDTSKNQFSLKLSSVTAADTAVYYCAAGYGSIDYWGQGTLVTVSS
VL: not shown
B12: antibody 470 (antibody, V domains shown)
VH: not shown
VL: QSALTQPASVSGSPGQSITISCTGTSSDVGSYNLVSWYQQHPGKAPKLMIYEVSKRPSGVSNRFSGSKSGNTASLTISGLQAEDEADYYCCSYAGSSTLVFGGGTKLTVL
B13: antibody 471 (antibody, V domains shown)
VH: QVQLVESGGGVVQPGRSLRLSCAASGFTFSSYAMHWVRQAPGKGLEWVAVISYDGSNKYYADSVKGRFTISRDNSKNTLYLQMNSLRAEDTAVYYCAKQYSPYCSGGSCYSGASDYWGQGTLVTVSS
VL: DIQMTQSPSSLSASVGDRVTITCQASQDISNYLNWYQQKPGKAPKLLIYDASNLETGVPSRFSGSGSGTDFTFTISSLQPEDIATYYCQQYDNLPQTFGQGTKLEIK
B14: antibody 474 (antibody, V domains shown)
VH: EVQLVESGGGLVQPGGSLRLSCAASGFTFSSYWMHWVRQAPGKGLVWVSRINSDGSSTSYADSVKGRFTISRDNAKNTLYRQMNSLRAEDTAVYYCALGPLDIVGSYYYYGMDVWGQGTTVTVSS
VL: NFMLTQPHSVSESPGKTVTISCTGSSGSIASNYVQWYQQRPGSAPTTVIYEDNQRPSGVPDRFSGSIDSSSNSASLTISGLKTEDEADYYCQSYDSSNQDVVFGGGTKLTVL
B15: antibody 475 (antibody, V domains shown)
VH: QVQLVESGGGVVQPGRSLRLSCAASGFTFSSYAMHWVRQAPGKGLEWVTFISHEGSNKYYADSVKGRFTISRDNSKNTLYLQMNSLRAEDTAVYYCARTFEYSSSSATGDFDYWGQGTLVTVSS
VL: QSVLTQPPSVSGAPGQRVTISCTGSSSNIGAGYDVHWYQQLPGTAPKLLIYGNSNRPSGVPDRFSGSKSGTSASLAITGLQAEDEADYYCQSYDSSLSGVVFGGGTKLTVL
B16: antibody 476 (antibody, V domains shown)
VH: QVQLVQSGSELKKPGASVKVSCKASGYTFTSYAMNWVRQAPGQGLEWMGWINTNTGNPTYAQGFTGRFVFSLDTSVSTAYLQISSLKAEDTGVYYCARDHELPNSSSWFGHFEYWGQGTLVTVSS
VL: SYELTQPPSVSVSPGQTARITCSGDALPKQYAYWYQQKAGQAPVLVIYKDSERRSGIPERFSGSSSGTTVTLTISGVQAEDEADYYCQSADSSGTSVVFGGGTKLTVL
B17: antibody 477 (antibody, V domains shown)
VH: QVQLVESGGGVVQPGRSLRLSCAASGITFSSYAMHWVRQAPGKGLEWVAVISYDGSDKYHADSVKGRFAISRDNSKNTLYLQMNSLRAEDTAVYYCAKDKGIAVAGTGWIRPDPEYYFDYWGQGTLVTVSS
VL: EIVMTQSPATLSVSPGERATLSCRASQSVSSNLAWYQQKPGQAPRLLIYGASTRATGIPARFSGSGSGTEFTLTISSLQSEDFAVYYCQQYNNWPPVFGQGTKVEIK
B18: antibody 480 (antibody, V domains shown)
VH: QVQLVESGGGVVQPGRSLRLSCAASGFTFSSYAMHWVRQAPGKGLEWVAVISYDGNNKYYADSVKGRFTISRDNSKNTLYLQMNSLRAEDTAVYYCVRTNSGSYYAAFDYWGQGTLVTVSS
VL: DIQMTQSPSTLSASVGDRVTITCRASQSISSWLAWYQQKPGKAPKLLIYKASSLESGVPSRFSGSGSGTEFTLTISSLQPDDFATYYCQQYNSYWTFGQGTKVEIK
B19: antibody 492 (antibody, V domains shown)
VH: QVQLVESGGGVVQPGRSLRLSCAASGFTFSSYGMHWVRQAPGKGLEWVAVISYDGSNKYYADSVKGRFTISRDNSKNTLYLQMNSLRAEDTAVYYCAKDGILWWWWGYFDYWGQGTLVTVSS
VL: QSVLTQPPSVSGAPGQRVTISCTGSSSNIGAGFDVHWYQQLPGTAPKLLIYGNSNRPSGVPDRFSGSKSGTSASLAITGLQAEDEADYYCQSYDSSLSVVFGGGTKLTVL
B20: antibody 496 (antibody, V domains shown)
VH: QVQLVQSGAEVKKPGASVKVSCKASGYTFTDYYIHWVRQAPGQGLEWMGWINPNSGGTNYAQKFQGRLTMTRDTSISTAYMELSRLRSDDTAVYYCARVYSMFREFIINPYYYYYGLDVWGQGTTVTVSS
VL: QSALTQPASVSGSPRQSITISCTGTSSDVGSYNLVSWYQQHPGKAPKLMIYEGSKRPSGVSNRFSGSKSGNTASLAISGLQAEDEANYYCCSYAGSSTLVFGGGTKLTVL
B21: antibody 497 (antibody, V domains shown)
VH: QVQLQESGPGLVKPSQTLSLTCTVSGGSINSFGYYWSWIRQHPGKGLEWIGYIYYSGSTDYNPSLNSRVTISLDTSKNQFLLKLTSVTAADTAVYYCAKLTDYYDSSGYSFDYWGQGTLVTVSS
VL: DIQMTQSPSSVSASVGDRVTITCRASQDISRWLAWYQQKPGKAPKLLIYAASSLQSGVPSRFSGRGSGTELTLTISSLQPEDFATYFCQQAYSFPFTFGGGTKVEIK
B22: antibody 504 (antibody, V domains shown)
VH: QVQLVESGGGVVQPGRSLRLSCAASGFTFSSYGMHWVRQAPGKGLEWVAVISYDGSNKYYADSVKGRFTISRDNSKNTLYLQMNSLRAEDTAVYYCAKGGGGGYCSGGSCYSHYFDYWGQGTLVTVSS
VL: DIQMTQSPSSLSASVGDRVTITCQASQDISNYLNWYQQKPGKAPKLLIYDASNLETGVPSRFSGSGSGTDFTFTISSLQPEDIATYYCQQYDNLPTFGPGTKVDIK
B23: antibody 509 (antibody, V domains shown)
VH: QVQLVESGGGVVQPGRSLRLSCAASGFNLSSYAMHWVRQASGKGLEWVSLISYDGSIKYYTDSVKGRFTVSGDNSKNTLFLQMNSLRADDSALYYCVRGGVSGPNSFDLWGQGTTVTVSS
VL: DVVMTQSPLSLPVTLGQPASISCRSSQSLVYSDGNTYVNWFQQRPGQSPRRLIYKVSIRASGVPDRFSGSGSGTDFALKISRVEAEDVGVYYCMQGTHWPVTFGQGTKVEIK
B24: antibody 510 (antibody, V domains shown)
VH: QVQLQESGPGLVKPSQTLSLTCTVSGGSISSGSYYWSWIRQPAGKGLEWIGRIYTSGSTNYNPSLKSRVTISVDTSKNQFSLKLSSVTAADTAVYYCAREGQWLYRFDYWGQGTLVTVSS
VL: QSALTQPASVSGSPGQSITISCTGTSSDVGNYDLVSWYQQHPGKAPKLVIYGVTKRPSGVSNRFSGSKSGNTASLTISGLQAEDEADYYCCSYATGDTSVFGTGTKVTVL

What follows are binders tested against SARS-CoV-2 full length spike protein, V483A mutant (SARS-CoV-2, UniProt P0DTC2 14-1273).

First: B1
Second: B2
The “median fluorescence intensity, fold over isotype control” value (“median fluorescence intensity, fold” below) of the first is higher: 16 fold over isotype for the first, 11.1 fold over isotype for the second.

First: B3
Second: B4
The “median fluorescence intensity, fold” value of the first is lower: 20.3 fold over isotype for the first, 22 fold over isotype for the second.

Compared with B5, B6 is lower in “median fluorescence intensity, fold” value: 18.7 fold over isotype for the first, 18.4 fold over isotype for the second.

Going from B7 to B8, the “median fluorescence intensity, fold” value rises from 9.93 fold over isotype to 10.2 fold over isotype.

Going from B9 to B10, the “median fluorescence intensity, fold” value falls from 21.3 fold over isotype to 10 fold over isotype.

What follows are binders tested against SARS-CoV-2 full length spike protein, D614G mutant (SARS-CoV-2, UniProt P0DTC2 14-1273).

In the case of B11, the “median fluorescence intensity, fold” value is reported as 6.88 fold over isotype.

What follows are binders tested against SARS-CoV-2 full length spike protein, V483A mutant, expressed on CHO cells (SARS-CoV-2, UniProt P0DTC2 14-1273).

Going from B12 to B13, the “median fluorescence intensity, fold” value falls from 7.63 fold over isotype to 2.75 fold over isotype.

First: B14
Second: B15
The “median fluorescence intensity, fold” value of the first is lower: 1.05 fold over isotype for the first, 20.2 fold over isotype for the second.

Going from B16 to B17, the “median fluorescence intensity, fold” value rises from 14.1 fold over isotype to 23.9 fold over isotype.

Compared with B18, B19 is lower in “median fluorescence intensity, fold” value: 10.7 fold over isotype for the first, 7.71 fold over isotype for the second.

First: B20
Second: B21
The “median fluorescence intensity, fold” value of the first is lower: 12.6 fold over isotype for the first, 22.2 fold over isotype for the second.

Going from B22 to B23, the “median fluorescence intensity, fold” value rises from 2.47 fold over isotype to 11.4 fold over isotype.

With B24 the “median fluorescence intensity, fold” value was 1.06 fold over isotype.
